Data published in paper PMC6082395 (Journal of molecular biology, 2018).
Substitutions are numbered along the chain they refer to. Names may count otherwise.

B1: human WT c-Myb TAD (residues 275–327) (domain or fragment, UniProt P10242 275-327, looked up)
chain: PAAAAIQRHYNDEDPEKEKRIKELELLLMSTENELKGQQVLPTQNHTCSYPGW
B2: c-Myb TAD L300A (domain or fragment, human, UniProt P10242 275-327, looked up)
chain: B1 chain with L26A
B3: c-Myb TAD L300P (domain or fragment, human, UniProt P10242 275-327, looked up)
chain: B1 chain with L26P
B4: c-Myb TAD L300V (domain or fragment, human, UniProt P10242 275-327, looked up)
chain: B1 chain with L26V
B5: c-Myb TAD N307P (domain or fragment, human, UniProt P10242 275-327, looked up)
chain: B1 chain with N33P
B6: c-Myb TAD L300G (domain or fragment, human, UniProt P10242 275-327, looked up)
chain: B1 chain with L26G
B7: c-Myb TAD K293H (domain or fragment, human, UniProt P10242 275-327, looked up)
chain: B1 chain with K19H
B8: c-Myb TAD N307G (domain or fragment, human, UniProt P10242 275-327, looked up)
chain: B1 chain with N33G
B9: c-Myb TAD N307V (domain or fragment, human, UniProt P10242 275-327, looked up)
chain: B1 chain with N33V
B10: c-Myb TAD S304G (domain or fragment, human, UniProt P10242 275-327, looked up)
chain: B1 chain with S30G
B11: c-Myb TAD S304P (domain or fragment, human, UniProt P10242 275-327, looked up)
chain: B1 chain with S30P
B12: c-Myb TAD S304A (domain or fragment, human, UniProt P10242 275-327, looked up)
chain: B1 chain with S30A
B13: c-Myb TAD P289A/P316A (domain or fragment, human, UniProt P10242 275-327, looked up)
chain: B1 chain with P15A, P42A
B14: c-Myb TAD S304V (domain or fragment, human, UniProt P10242 275-327, looked up)
chain: B1 chain with S30V
B15: c-Myb TAD G311A (domain or fragment, human, UniProt P10242 275-327, looked up)
chain: B1 chain with G37A
B16: c-Myb TAD E292D (domain or fragment, human, UniProt P10242 275-327, looked up)
chain: B1 chain with E18D
B17: c-Myb TAD K296H (domain or fragment, human, UniProt P10242 275-327, looked up)
chain: B1 chain with K22H
B18: c-Myb TAD P289A (domain or fragment, human, UniProt P10242 275-327, looked up)
chain: B1 chain with P15A
B19: c-Myb TAD N307A (domain or fragment, human, UniProt P10242 275-327, looked up)
chain: B1 chain with N33A

Target: KIX domain of human CBP (residues 586–672) (human, UniProt Q92793 586-672)
Sequence (Q92793 586-672): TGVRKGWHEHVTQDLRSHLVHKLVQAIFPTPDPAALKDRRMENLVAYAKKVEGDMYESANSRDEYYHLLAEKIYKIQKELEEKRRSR
Experiment: ITC

| Binder | Kd [nM] | dH [kcal/mol] |
| --- | --- | --- |
| B1 | 500 ± 30 | -10.5 ± 0.4 |
| B2 | 670 ± 80 | -9.26 ± 0.39 |
| B3 | 290000 ± 101000 | -1.34 ± 0.29 |
| B4 | 820 ± 50 | -11.38 ± 0.11 |
| B5 | 950 ± 70 | -8.97 ± 0.32 |
| B6 | 2240 ± 20 | -11.33 ± 0.04 |
| B7 | 780 ± 60 | -11.1 ± 2.1 |
| B8 | 610 ± 40 | -9.26 ± 0.23 |
| B9 | 390 | -8.44 ± 0.04 |
| B10 | 710 ± 130 | -13.3 ± 2.69 |
| B11 | 3450 ± 500 | -7.35 ± 0.97 |
| B12 | 380 ± 40 | -6.94 ± 0.51 |
| B13 | 530 ± 20 | -9.81 ± 0.1 |
| B14 | 1490 ± 290 | -8.39 ± 0.93 |
| B15 | 460 ± 30 | -10.1 ± 0.26 |
| B16 | 630 ± 20 | -11.22 ± 0.05 |
| B17 | 870 ± 50 | -13.8 ± 0.48 |
| B18 | 620 ± 20 | -10.2 ± 0.27 |
| B19 | 410 ± 70 | -8.29 ± 0.6 |
